Measured values published in publication PMC12032302, “A20 attenuates oxidized self-DNA-mediated inflammation in acute kidney injury” (Signal Transduction and Targeted Therapy, 2025).

Experiments:
[1] = biological target: T1, HA-NEK7 (mouse NIMA-related kinase 7, wild type) (mouse, UniProt Q9ES74 1-302); assay: BLI; 3×HA-NEK7 (WT or Tri-MUT) purified from HEK293T with HA antibody; legend: P-II diluted into the indicated concentrations; methods: peptide immobilised on AR2G biosensors; 1:1 binding model; conditions: both partners purified
T1 construct: NEK7, mouse, cDNA amplified from a mouse cDNA library; also called WT-NEK7; HA-WT-NEK7; source: HEK293T, transiently transfected, in lysate; for BLI purified with HA antibody, eluted with 0.1 M glycine pH 2.0
T1 sequence (Q9ES74 whole entry): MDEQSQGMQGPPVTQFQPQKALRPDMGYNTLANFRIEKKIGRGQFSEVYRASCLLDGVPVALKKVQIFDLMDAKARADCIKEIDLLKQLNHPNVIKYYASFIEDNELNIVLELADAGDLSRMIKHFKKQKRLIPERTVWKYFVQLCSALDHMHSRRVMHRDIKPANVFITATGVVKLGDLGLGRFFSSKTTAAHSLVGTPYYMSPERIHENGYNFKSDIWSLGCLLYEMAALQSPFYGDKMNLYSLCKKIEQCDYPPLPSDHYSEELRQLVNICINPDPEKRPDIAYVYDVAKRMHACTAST

[2] = biological target: T2, recombinant human NEK7 protein (human, UniProt Q8TDX7 1-302); assay: BLI; peptide immobilised on Octet AR2G biosensors at 400 μg/ml for 500 s; recombinant human NEK7 39.0625 to 1250 nM, association 120 s, dissociation 120 s; 1:1 binding model; conditions: both partners purified
T2 construct: NEK7, human, recombinant; source: bought: SinoBiological
T2 sequence (Q8TDX7 whole entry): as the sequence (Q9ES74 whole entry) above, with T14P, S52A, D150E, I273M, I285V, A286T, T302S counted along it

binding result [1]: binds | binding result [2]: binds
B1: A20-derived peptide P-II (peptide)
peptide: KLVALKTNGDGNCLMHAACQYMWGVQDTD
notes: peptide generated according to the OTU domain of A20; also called NEK7 targeting peptide; source: synthetic peptide (constructed by GeneWiz; for BLI: Bootech BioScience &Technology)
